Measurements from patent US20060002929A1.

Assays:
Human Fc-OX40L (human) [1] = target: Human Fc-OX40L (human) (UniProt P23510); assay: BIAcore, immobilized hFc-OX40L
Human Fc-OX40L (human) [2] = target: Human Fc-OX40L (human) (UniProt P23510); assay: cell-based or functional assay

Chain of Human Fc-OX40L (human) (P23510 51-183 limits assumed): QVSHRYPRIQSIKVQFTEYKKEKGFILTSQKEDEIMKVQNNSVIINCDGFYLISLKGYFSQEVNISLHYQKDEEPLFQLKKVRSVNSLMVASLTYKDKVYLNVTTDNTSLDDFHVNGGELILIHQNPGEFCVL

B1: Ab G (antibody, part only; not given: light chain, part only)
heavy: MEFGLSWIFLAAILKGVQCEVQLVESGGGLVKPGGSLRLSCAASGFTFSNAWMSWVRQAPGKGLEWIGRIKSKTEGGTTDYGAPVKGRFTISRDDSKNTLYLQMNSLKTEDTAVYSCTTDFLWFGEFPFDYWGQGTLVTVSSASTKGPSVFPLAPCSRSTSESTAALGCLVKDYFPEPVTVSWNSGALTSGVHTFPAVLQSSGLYSLSSVVTVPSSNFGTQTYTCNVDHKPSNTKVDKTVERKCCVECPPCPAPPVAGPSVFLFPPKPKDTLMISRTPEVTCVVVDVSHEDPEVQFNWYVDGVEVHNAKTKPREEQFNSTFRVVSVLTVVHQDWLNGKEYKCKVSNKGLPAPIEKTISKTKGQPREPQVYTLPPSREEMTKNQVSLTCLVKGFYPSDIAVEWESNGQPENNYKTTPPMLDSDGSFFLYSKLTVDKSRWQQGNVFSCSVMHEALHNHYTQKSLSLSPGK
What does the source list for B1?
EC50 (Human Fc-OX40L (human) [1]): 0.4 nM; Costimulation Value (IC50), T cell proliferation (3H-thymidine) (Human Fc-OX40L (human) [2]): 3.2; IL-2 Inhibition (IC50 [nM]) (Human Fc-OX40L (human) [2]): 0.22 nM
